This passage reports percent of importin α bound to cargo results from publication PMC4346194.

Holding throughout (experiment): pull-down
For assay [1], the target named is GST-tagged ΔIBB-importin α3 (human) (UniProt O00629).
Assay [2] addresses GST-tagged FL-importin α7 (human) (UniProt O60684).
The target of assay [3] is GST-tagged FL-importin α1 (mouse) (UniProt P52293).
In assay [4] the target is GST-tagged ΔIBB-importin α1 (mouse) (UniProt P52293).
The target of assay [5] is GST-tagged ΔIBB-importin α7 (human) (UniProt O60684).
Sequence of GST-tagged ΔIBB-importin α7 (human) (O60684 59-536, stated change not applied): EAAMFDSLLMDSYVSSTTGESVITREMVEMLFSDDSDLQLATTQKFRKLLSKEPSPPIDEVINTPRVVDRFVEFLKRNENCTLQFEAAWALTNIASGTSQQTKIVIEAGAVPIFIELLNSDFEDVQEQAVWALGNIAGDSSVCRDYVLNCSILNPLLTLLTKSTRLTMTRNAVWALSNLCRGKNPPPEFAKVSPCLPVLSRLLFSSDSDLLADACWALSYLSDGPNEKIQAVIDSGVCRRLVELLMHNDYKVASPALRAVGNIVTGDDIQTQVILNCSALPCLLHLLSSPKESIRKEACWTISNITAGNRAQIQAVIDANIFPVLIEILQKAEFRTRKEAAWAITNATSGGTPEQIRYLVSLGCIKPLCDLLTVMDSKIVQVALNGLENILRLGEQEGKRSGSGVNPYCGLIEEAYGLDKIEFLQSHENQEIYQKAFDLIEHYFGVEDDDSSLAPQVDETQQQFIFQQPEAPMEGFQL
In assay [6] the target is GST-tagged IBB3-importin α1 (human | mouse) (UniProt O00629).
For assay [7], the target named is GST-tagged FL-importin α3 (human) (UniProt O00629).
Sequence of GST-tagged FL-importin α3 (human) (O00629 whole entry): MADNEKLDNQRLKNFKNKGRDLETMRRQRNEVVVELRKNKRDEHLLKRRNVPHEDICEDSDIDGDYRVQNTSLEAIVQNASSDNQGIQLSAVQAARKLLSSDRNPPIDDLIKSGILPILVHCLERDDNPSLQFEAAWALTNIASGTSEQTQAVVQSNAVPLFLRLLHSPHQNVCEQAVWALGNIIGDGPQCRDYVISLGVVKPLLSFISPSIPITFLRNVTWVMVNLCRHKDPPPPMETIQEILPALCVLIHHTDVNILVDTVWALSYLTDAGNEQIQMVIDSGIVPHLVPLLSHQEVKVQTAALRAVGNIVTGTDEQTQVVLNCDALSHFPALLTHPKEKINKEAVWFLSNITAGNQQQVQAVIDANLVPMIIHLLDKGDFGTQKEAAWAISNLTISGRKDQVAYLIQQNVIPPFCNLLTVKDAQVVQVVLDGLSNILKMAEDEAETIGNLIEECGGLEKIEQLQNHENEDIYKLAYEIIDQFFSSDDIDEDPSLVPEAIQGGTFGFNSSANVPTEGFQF
Assay [8] has as its target GST-tagged IBB1-importin α3 (mouse | human) (UniProt P52293).

Sequence of MBP-tagged PB2-biNLS (res. 738-759) (P31345 738-759 limits assumed): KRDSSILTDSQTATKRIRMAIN

As for “MBP-tagged PB2-NLD (res. 678-759) (from UniProt P31345 678-759) (domain or fragment)”, the percent of importin α bound to cargo in assay [1] turned out to be 100%; in assay [2], 62%; in assay [3], 32%; in assay [4], 100%; in assay [5], 100%; in assay [6] it was 70%.

Consider “MBP-tagged PB2-biNLS (res. 738-759) (from UniProt P31345 738-759) (peptide)”, for which the percent of importin α bound to cargo in assay [1] was 27%; in assay [2], 21%; in assay [3], 7%; in assay [4], 51%; in assay [5] it was 81%; in assay [7] it was 7%.

“MBP-tagged nucleoplasmin NLS (NP-NLS, res. 155-170) (from UniProt P05221 155-170) (peptide)”: the percent of importin α bound to cargo was 45% in assay [1], 12% in assay [8] and 57% in assay [6].
